2 molecules from paper PMC3794954, “An Improved SELEX-Seq Strategy for Characterizing DNA-Binding Specificity of Transcription Factor: NF-κB as an Example” can be followed below.

In data set [1] the target is T1, NF-kB p50 (UniProt P19838 1-433). Kind of data set: EMSA; no polydI-dC; 1x DBB (from 5x): 10 mM Tris-HCl pH 7.5, 50 mM NaCl, 0.5 mM EDTA, 3 mM MgCl2, 1% glycerol, 0.5 mg/ml BSA, 0.05% NP-40, 0.01 mM DTT; room temperature 60 min; 6%. To be noted: protein: commercial; chain copies: 2; label: 5' FAM on reverse strand (primer P-R); blunt.
T1 sequence (P19838 1-433): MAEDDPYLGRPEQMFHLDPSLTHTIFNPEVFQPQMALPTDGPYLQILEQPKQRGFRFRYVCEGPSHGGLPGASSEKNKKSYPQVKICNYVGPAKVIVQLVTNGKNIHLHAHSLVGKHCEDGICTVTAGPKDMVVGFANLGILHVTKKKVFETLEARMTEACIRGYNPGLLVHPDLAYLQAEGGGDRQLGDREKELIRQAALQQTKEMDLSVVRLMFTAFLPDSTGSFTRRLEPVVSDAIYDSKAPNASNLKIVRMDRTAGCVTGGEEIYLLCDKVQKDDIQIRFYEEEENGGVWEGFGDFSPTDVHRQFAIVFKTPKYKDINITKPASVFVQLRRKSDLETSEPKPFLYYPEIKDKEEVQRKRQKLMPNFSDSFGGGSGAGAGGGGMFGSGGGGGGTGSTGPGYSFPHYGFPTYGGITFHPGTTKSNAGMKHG
The target in data set [2] is T1, NF-kB p50. As to the kind of experiment: EMSA; higher affinity than the 3' T probe; 1x DBB (from 5x): 10 mM Tris-HCl pH 7.5, 50 mM NaCl, 0.5 mM EDTA, 3 mM MgCl2, 1% glycerol, 0.5 mg/ml BSA, 0.05% NP-40, 0.01 mM DTT; room temperature 60 min; 6%. The following applies: protein: commercial; chain copies: 2; label: biotin at ends; blunt. Background: A gel shift assay detects complexes by their altered migration in electrophoresis.

B1: positive dsDNA (dsDNA)
DNA 1: ACTGTCTGAGGAGTGTCGTGTGCTAAAGGGACTTTCCAAAACGACTCAGCACCACTTCACTCAC
DNA 2: GTGAGTGAAGTGGTGCTGAGTCGTTTTGGAAAGTCCCTTTAGCACACGACACTCCTCAGACAGT
Take B1: the binding result with NF-kB p50 [1] is reported as “binds”.

B2: probe b (GGGACTTTCCC) (dsDNA)
DNA 1: AGTTGAGGGGACTTTCCCAGGC
DNA 2: GCCTGGGAAAGTCCCCTCAACT
As to B2, the binding result with NF-kB p50 [2] is on record as “binds”.
